Legend:
[1] = target: the molecule itself; test: single-particle cryo-EM, 2D class averages only
cryo-EM structure [2] = target: the molecule itself; test: cryo-EM structure
cryo-EM structure [3] = target: the molecule itself; test: cryo-EM structure; remark: listed apart in the source
native gel or EMSA = target: the molecule itself; test: native gel or EMSA

B1: YhhT, AI-2 exporter from E. coli (natural protein, Escherichia coli K-12, UniProt P0AGM0 1-349, looked up)
chain: METPQPDKTGMHILLKLASLVVILAGIHAAADIIVQLLLALFFAIVLNPLVTWFIRRGVQRPVAITIVVVVMLIALTALVGVLAASFNEFISMLPKFNKELTRKLFKLQEMLPFLNLHMSPERMLQRMDSEKVVTFTTALMTGLSGAMASVLLLVMTVVFMLFEVRHVPYKMRFALNNPQIHIAGLHRALKGVSHYLALKTLLSLWTGVIVWLGLELMGVQFALMWAVLAFLLNYVPNIGAVISAVPPMIQVLLFNGVYECILVGALFLVVHMVIGNILEPRMMGHRLGMSTMVVFLSLLIWGWLLGPVGMLLSVPLTSVCKIWMETTKGGSKLAILLGPGRPKSRLPG
stoichiometry N [1]: 5

B2: Aq_740, AI-2 exporter from Aquifex aeolicus (natural protein, UniProt O66948 1-353, looked up)
chain: MNKLSLFVYLFFFLSFLFLFLYLLQPFFNPIVWAIVFGIVLYPLYGFIKRKLKSENLAAFLVIFIVLVAIVIPFTIFAVITAQQIIVFSIKVVNFVQTHSVNDLINSLKEIPFLKEKRESLEPLLNYLQSEEFRRALINALNSILTFVGDRLRSYVYTAGTSLFHVFVFLLTLFFILRDGEKVLKEIINSIPMKREDLEEILKTIYRTVLAVIYGTVGTAVAQSIMGFIGYSLAGVEFALIWALITFFAAFVPPFGAAFVWVPMDIYLFTTKGIKEGLILLFFGTFLISTMDNIVRPLVMKQGIKLPYVALFFSTIGGLIKFGFIGVFLGPIILSTMLASVKIYRRRVIHSGI
stoichiometry N (cryo-EM structure [2]): 5

B3: TqsA (transporter of quorum-sensing signal AI-2) from E. coli (natural protein, Escherichia coli K-12, UniProt P0AFS5 1-344, looked up)
chain: MAKPIITLNGLKIVIMLGMLVIILCGIRFAAEIIVPFILALFIAVILNPLVQHMVRWRVPRVLAVSILMTIIVMAMVLLLAYLGSALNELTRTLPQYRNSIMTPLQALEPLLQRVGIDVSVDQLAHYIDPNAAMTLLTNLLTQLSNAMSSIFLLLLTVLFMLLEVPQLPGKFQQMMARPVEGMAAIQRAIDSVSHYLVLKTAISIITGLVAWAMLAALDVRFAFVWGLLAFALNYIPNIGSVLAAIPPIAQVLVFNGFYEALLVLAGYLLINLVFGNILEPRIMGRGLGLSTLVVFLSLIFWGWLLGPVGMLLSVPLTIIVKIALEQTAGGQSIAVLLSDLNKE
stoichiometry N (cryo-EM structure [3]): 5

B4: YdiK, AI-2 exporter from E. coli (natural protein, Escherichia coli K-12, UniProt P0AFS7 1-370, looked up)
chain: MVNVRQPRDVAQILLSVLFLAIMIVACLWIVQPFILGFAWAGTVVIATWPVLLRLQKIMFGRRSLAVLVMTLLLVMVFIIPIALLVNSIVDGSGPLIKAISSGDMTLPDLAWLNTIPVIGAKLYAGWHNLLDMGGTAIMAKVRPYIGTTTTWFVGQAAHIGRFMVHCALMLLFSALLYWRGEQVAQGIRHFATRLAGVRGDAAVLLAAQAIRAVALGVVVTALVQAVLGGIGLAVSGVPYATLLTVLMILSCLVQLGPLPVLIPAIIWLYWTGDTTWGTVLLVWSGVVGTLDNVIRPMLIRMGADLPLILILSGVIGGLIAFGMIGLFIGPVLLAVSWRLFAAWVEEVPPPTDQPEEILEELGEIEKPNK
stoichiometry N (cryo-EM structure [3]): 5

B5: PerM, AI-2 exporter from E. coli (natural protein, Escherichia coli K-12, UniProt P0AFI9 1-353, looked up)
chain: MLEMLMQWYRRRFSDPEAIALLVILVAGFGIIFFFSGLLAPLLVAIVLAYLLEWPTVRLQSIGCSRRWATSIVLVVFVGILLLMAFVVLPIAWQQGIYLIRDMPGMLNKLSDFAATLPRRYPALMDAGIIDAMAENMRSRMLTMGDSVVKISLASLVGLLTIAVYLVLVPLMVFFLLKDKEQMLNAVRRVLPRNRGLAGQVWKEMNQQITNYIRGKVLEMIVVGIATWLGFLLFGLNYSLLLAVLVGFSVLIPYIGAFVVTIPVVGVALFQFGAGTEFWSCFAVYLIIQALDGNLLVPVLFSEAVNLHPLVIILSVVIFGGLWGFWGVFFAIPLATLIKAVIHAWPDGQIAQE
stoichiometry N (native gel or EMSA): 2

Source: doi:10.1101/2021.10.20.465058 (bioRxiv, 2021)
